Results from the nanobody polyreactivity screen of Harvey et al. (2022).

Assay: yeast display, Sf9 membrane polyspecificity reagent, FACS + sequencing; frameworks hold sequencing errors
Outline: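 After 36–48 hours of galactose induction, yeast (Saccharomyces cerevisiae BJ5465) displaying a synthetic nanobody library were stained at 4 °C for 1 hour with 10% biotinylated, detergent-solubilized Sf9 membrane reagent. Streptavidin microbeads enriched the stained cells before FACS sorting into low and high (top ~1%) gates on anti-HA and streptavidin fluorescence. Each clone's polyreactivity label reflects its gate of origin.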

QVQLEESGGGLVQAGGSLRLSCAASGSIFDYYAMGWYRKATGKERELVAAISWSGGSTYYADSVKGRFTISRDNAKNTVYLKMIILKPEDTAVYYCAADSSGIGYSSLYFNWGQGSQVTVSS
polyreactivity (PSR sort gate): low polyreactivity

QVQLEESGGGLVQAGGSLRLSCAASGSIFPRFYAIGWYRQAPGKERELVAAISWRDGSTFYADSVKGRFTISRDNAKNTVYLQMNSLKPEDTGVYYCAAATYRYGYGYWGQGTQVTVSS
polyreactivity (PSR sort gate): high polyreactivity

QVQLEESGGGLVQAGGSLRLSCAASGSIFRRYARGWYRQAPGKERELVAAISRSGSSTYADSVKGRFTISRDNAKNTVYLQMNSLKPEDTAVYYCAASYAFLYYGYDSWGQGTQVTVSS
polyreactivity (PSR sort gate): low polyreactivity

QVQLEESGGGLVQAGGSLRLSCAASGSIFSYNSMGWYRQAPGKDREFVATIDWRDGSTYYADSVKGRFTISRDNGKNTVYLQMNSMKPEDTAVYYCATDYIVVEDYYWGQGTQVTVSS
polyreactivity (PSR sort gate): high polyreactivity

QVQLEESGGGLVQAGGSLRLSCAASGSIFTVNAMGWYRQAPGKERELVAAISSGGSTHYADSVKGRFTISRDNAKNTVYLQMNSLKPEDTAVYFCNAAGAYPDRDNYWGQGTQVTVSS
polyreactivity (PSR sort gate): low polyreactivity

QVQLEESGGGLVQAGGSLRLSCAASGSIIDYYAMGWYRQAPGKERELVADITVTGDGTYYADSVKGRFTISRDNAKNTVYLQMNSLKPEDTAVYYCAADFWLVSFQWDFEYDYWGQGTQVTVSS
polyreactivity (PSR sort gate): low polyreactivity

QVQLEESGGGLVQAGGSLRLSCAASGSILESNVMGWYRQAPGKERELVASISSSGDSTYADSVKGRFTISRDNAKNTVYLQMNSLKPEDTAVYYCAADRWYWTYALYYWGQGTQVTVSS
polyreactivity (PSR sort gate): low polyreactivity

QVQLEESGGGLVQAGGSLRLSCAASGSTFAGNAMGWYRQAPGKERELVAAISGSGGITYYADSVKGRFTISRDNAKNTVYLQMNSLKAEDTAVYYCNAYYWFSRYGYWGQGTQVNVSS
polyreactivity (PSR sort gate): high polyreactivity

QVQLEESGGGLVQAGGSLRLSCAASGSTFAPNAMGWYRAAPGKEMELVASIRRGGSTHYADSVKGRFTISRDNAKNTVYFQMNSLQPEDTAVYYCAAEFRDVSSNGYDFLGQGTQVTVSS
polyreactivity (PSR sort gate): low polyreactivity

QVQLEESGGGLVQAGGSLRLSCAASGSTFDYYARGWYRPAPGKERELVAVISSGGSTYYADSVKGRFTISRDNAKNTVYLQMNSLKPEDTAVYYCAAETYYYVLPHWYKYKYGYWGQGTQVTVSS
polyreactivity (PSR sort gate): low polyreactivity

QVQLEESGGGLVQAGGSLRLSCAASGSTFGYNAMGWYRQAPGKERELVAAITSGGRTKYADSVKGRFTISRDNAKNTVYLQMNSLKPEDTAVYYCATDQSYRFLFYRAYDMDYWGQGTQVTVSS
polyreactivity (PSR sort gate): high polyreactivity

QVQLEESGGGLVQAGGSLRLSCAASGSTFGYYAMGWYRQAPGKERELVAAISWSGTRTYYADSVKGRFTISRDNAKNTVYLQMNSLKPEDTAVYYCAAVYRGSYRGSYRFDDSHYDYSGQGTQVTVSS
polyreactivity (PSR sort gate): high polyreactivity

QVQLEESGGGLVQAGGSLRLSCAASGSTFHLYAMGLYRQAPGKEREFVAAIRGRGGNTYADSVKGRFTISRDNAKNTVYLQMNSLKPEDTAVYYCAAPLLRDLRSQYYYIYWGQCTQVTVSS
polyreactivity (PSR sort gate): low polyreactivity

QVQLEESGGGLVQAGGSLRLSCAASGSTFNDYAMGRYRQAPGKERELVAAISSSGGITYYADSVKGRFTISRDNAKNTVYLQMNSLKPEDTEVYYCAASGRDWSWYDYWGQGTQVTVSS
polyreactivity (PSR sort gate): low polyreactivity

QVQLEESGGGLVQAGGSLRLSCAASGSTFRRYTMGWYRQAPGKERELVAAITRGGSTYYADSVKGRFTISRDNAKNTVYLQMNSLKPEDTAVYYCAVKYFTAFRLRGDYWGQGTQVTVSS
polyreactivity (PSR sort gate): high polyreactivity

QVQLEESGGGLVQAGGSLRLSCAASGSTFRYYVMGWYRPAPGKERYLVAAITSSGSTNYADSVKGRFTISRDNAKNTVYLQMNSLKPEDTAVYYCAAVYRDRSQKKRIFYYWGQGTQVTVSS
polyreactivity (PSR sort gate): high polyreactivity

QVQLEESGGGLVQAGGSLRLSCAASGSTFTAYAMGWYREAPGKEMELVAAINWSGGTTYYADSVKGRFTISRDNAKNTVYLQMNSLKPEDTAVYYCAVDGNFFGEVRPYDYWGQGTQVTVSS
polyreactivity (PSR sort gate): low polyreactivity

QVQLEESGGGLVQAGGSLRLSCAASGSTFWYYAMGWYRPAPGKERELVAALSRSTGSTYYADSVKGRFTISRDNAKNTVYLQMNSLKPEDTAVYYCAADSYDWWQYTTSVHFDYYWGQGTQVTVSS
polyreactivity (PSR sort gate): low polyreactivity

QVQLEESGGGLVQAGGSLRLSCAASGSTFYYNAMGWYRQAPGKEREFVARISRSGGSTYADSVKGRFTISRDNAKNTVYLQMNSLKPEDTGVYYCNADAYGTPEFTSYAVRYDYWGQGTQVTVSS
polyreactivity (PSR sort gate): low polyreactivity

QVQLEESGGGLVQAGGSLRLSCAASGSTIFGNTMGWYRQAPGKERELVATITRRGGSTYYADSVKGRFTISRDNAKNTVYLQMNSLKPEDTAVYYCAKRGPYTKYDYWGQGTQVTVSS
polyreactivity (PSR sort gate): low polyreactivity

QVQLEESGGGLVQAGGSLRLSCAASGSTIKTYATMGWYRQAHGKERELVAAITSGSSTNYADSVKGRFTISRDTAMNTDYLQMNSLKPEDTAVYYGAADDYYNWYLGEPGDYLGQGTQVTVSS
polyreactivity (PSR sort gate): low polyreactivity

QVQLEESGGGLVQAGGSLRLSCAASGSTLTRNAMGWYRQAPGKERELVAAITSGGRTKYADSVKGRFTISRDNAKNTVYLQMNSLKPEDTAVYYCAKGGPPGQRGYDYWGQGTQVTVSS
polyreactivity (PSR sort gate): high polyreactivity

QVQLEESGGGLVQAGGSLRLSCAASGSTYGNSAMAGYRQAPGKERELVAAINGGPNTYYADSVKGRFTISRDNAKKTVYLQMNSLKPEDTAVYYCAAEAQAIGFHWGVDGDSWGQGTQVTVSS
polyreactivity (PSR sort gate): low polyreactivity

QVQLEESGGGLVQAGGSLRLSCAASGYIFRFYTMGWYRQAPGKERELVAAISSGGSTNYADSVKGRFTISRANAKNTVYLQMNSLKPEDTAVYYCAARFYSRYYWGQGTQVTVSS
polyreactivity (PSR sort gate): low polyreactivity

QVQLEESGGGLVQAGGSLRLSCAASGYISRQSAMGWYSQAPGKERELVAAITRGGAGTYYAASVKGRFTISRDNAKHTVYLQMNSLKPEDTAVYYCAKTWVSRDVEYDYWGQGTQVTVSS
polyreactivity (PSR sort gate): low polyreactivity

QVQLEESGGGLVQAGGSLRLSCAATGGTFRDNVMGWYRQAPGKERELVAAISRNGGSTYYADTVKGRFTISRDNAKNTVYLQMTSLKPEDTAVYYCAARHLSAGGYYWGQGTQVTVSS
polyreactivity (PSR sort gate): high polyreactivity

QVQLEESGGGLVQAGGSLRLSCAATGSIFYSYAMGSNRQAPGKEMELVATISTGGSTDYADSVKGRYTISRDNAKNTVYLQMNSLKPEETAVYYCATSGPYWWLVYWGQGTQVTVSS
polyreactivity (PSR sort gate): low polyreactivity

QVQLEESGGGLVQAGGSLRLSCAAYGGIFKQYAMGWYRQAPGKETELVAAITWSGGSTYYADSVKGRFTISRDNAKTTVSLQMNSLKPEDTAVYYCAKDYVVFQYVDFQDDDYWGQGTQVSVSS
polyreactivity (PSR sort gate): low polyreactivity

QVQLEESGGGLVQAGGSLRLSCAAYGSIIPFYPMGWYRQAPWTERELVAAISDRGGSTYYADSVKGRFTISRDNAKYTVYLQMNSLKPEDTAVYYGAKGGEVSQGYTDEYDYWGQGTQVTVSS
polyreactivity (PSR sort gate): low polyreactivity

QVQLEESGGGLVQAGGSLRLSCGASGFTFRGYAMGWYIQAPGKERELVAAISKRGGSTYYADSVKGRFTISRDNAKNTVYLQMNSLKPEDTAVYYGAAEDTVYWGGVYYWTVYYWGQGTQVNVSS
polyreactivity (PSR sort gate): high polyreactivity

QVQLEESGGGLVQAGGSLRLSCPASGRTFSVYAIGSYRPAPGKERELLAGITSGGSTNYADSVKGRFTISRDNAKNTVYLQMISLKPEDTAVYYCAAANVYAGFGFVSIGDYWGQGTQVTVSS
polyreactivity (PSR sort gate): low polyreactivity
